Measured values taken from patent US20190241670A1 (BIOCON, published 2019).

Target: T1, rhCD6FC/Chimera (R and D systems) (human, UniProt P30203 25-398)
T1 construct: Bought reagent (R and D systems), coated on the ELISA plate; also called CD6 receptor; Fc part of the bought chimera not given
T1 sequence (looked up): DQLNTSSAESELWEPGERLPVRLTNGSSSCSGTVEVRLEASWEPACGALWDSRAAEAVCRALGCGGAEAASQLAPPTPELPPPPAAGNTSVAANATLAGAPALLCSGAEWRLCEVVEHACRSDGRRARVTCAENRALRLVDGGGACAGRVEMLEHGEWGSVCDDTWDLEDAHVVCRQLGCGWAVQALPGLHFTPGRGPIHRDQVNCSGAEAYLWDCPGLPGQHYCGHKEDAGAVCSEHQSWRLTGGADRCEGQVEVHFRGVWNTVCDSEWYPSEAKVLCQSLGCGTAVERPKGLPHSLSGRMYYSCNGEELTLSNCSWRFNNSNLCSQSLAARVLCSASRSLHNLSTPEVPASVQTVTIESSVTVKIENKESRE
Assay: ELISA, CD6-Fc coated plate, fixed T1h with varying ALCAM-Fc as competitor
Method: When varying concentrations of ALCAM-Fc was incubated along with a fixed concentration of T1h in a CD6-Fc coated ELISA plate, T1h was detected at all concentration of ALCAM-Fc.
The rhCD6FC/Chimera (R and D systems) (100 ≈g/ml) was diluted in coating buffer and 100 ≈l was added to each well of a 96 well Nunc-Maxisorp plate. The plate was then incubated at 4éC overnight. The Plate was washed thrice with PBS Tween 20. Subsequently, 200 ≈l of blocking solution (2% BSA+0.1% Tween 20 in 1×PBS) was added and incubated for 1 hour at 37éC. After incubation, the plate was washed again with PBS Tween thrice, followed by the addition of T1h monoclonal antibody (0.2 mg/ml) and .rhA LCAMFc (R and D systems) at varying concentrations. This was then incubated for an hour at 37éC. The plate was washed 3 times subsequently with PBS Tween. To the wells 200 ≈l of anti human IgG (Fab)₂ ALP (1:20000) diluted in blocking buffer was added and incubated for 1 hour at 37éC. The plate was washed thrice with PBS tween and 200 ≈l of p-Nitrophenyl Phosphate (PNPP) substrate is added to each well and incubated at 37éC till color develops around 15 minutes. Reading was taken at 405 nm using a BIOTEK Micro Plate Reader.

B1: humanized IgG1 isotype anti-CD6 monoclonal antibody (T1h) (antibody, V domains shown)
VH: EVQLVESGGGLVKPGGSLKLSCAASGFKFSRYAMSWVRQAPGKRLEWVATISSGGSYIYYPDSVKGRFTISRDNVKNTLYLQMSSLRSEDTAMYYCARRDYDLDYFDSWGQGTLVTVSS
VL: DIQMTQSPSSLSASVGDRVTITCKASRDIRSYLTWYQQKPGKAPKTLIYYATSLADGVPSRFSGSGSGQDYSLTISSLESDDTATYYCLQHGESPFTLGSGTKLEIK
notes: also called humanized IOR-T1; Itolizumab
**Q.** Does B1 bind?
**A.** binds
